Reference: patent publication US20250381289A1 (Genmab, published 2025)
One block for each binder: values may come before it.

Tests used:
[1] = target: T1, cMET on EGFR and cMET co-expressed tumor cell lines (UniProt P08581 25-1390, limits assumed); test: flow cytometry, MKN-45 cells
T1 construct: whole, on cells

[2] = target: T1, cMET on EGFR and cMET co-expressed …; test: flow cytometry, NCI-H441 cells
[3] = target: T1, cMET on EGFR and cMET co-expressed …; test: flow cytometry, NCI-H1975 cells
Human EGFR = target: T2, Human EGFR (human, UniProt P00533); test: ELISA, plate coated with 100 ng/well human EGFR recombinant protein, HRP anti-human Fc, OD450
T2 construct: recombinant protein coated on the ELISA plate; also called human EGFR recombinant protein

[4] = target: T1, cMET on EGFR and cMET co-expressed …; test: flow cytometry on EBC-1 cells (co-express EGFR and cMET), PE anti-human Fc; signal of the whole bispecific, not resolved by arm
[5] = target: T3, EGFR on EGFR and cMET co-expressed tumor cell lines (UniProt P00533 25-1210, limits assumed); test: as above
T3 construct: whole, on cells

Human cMET = target: T4, Human cMET; test: ELISA, plate coated with 100 ng/well human cMET recombinant protein, HRP anti-human Fc, OD450
T4 construct: also called human cMET recombinant protein
T4 chain: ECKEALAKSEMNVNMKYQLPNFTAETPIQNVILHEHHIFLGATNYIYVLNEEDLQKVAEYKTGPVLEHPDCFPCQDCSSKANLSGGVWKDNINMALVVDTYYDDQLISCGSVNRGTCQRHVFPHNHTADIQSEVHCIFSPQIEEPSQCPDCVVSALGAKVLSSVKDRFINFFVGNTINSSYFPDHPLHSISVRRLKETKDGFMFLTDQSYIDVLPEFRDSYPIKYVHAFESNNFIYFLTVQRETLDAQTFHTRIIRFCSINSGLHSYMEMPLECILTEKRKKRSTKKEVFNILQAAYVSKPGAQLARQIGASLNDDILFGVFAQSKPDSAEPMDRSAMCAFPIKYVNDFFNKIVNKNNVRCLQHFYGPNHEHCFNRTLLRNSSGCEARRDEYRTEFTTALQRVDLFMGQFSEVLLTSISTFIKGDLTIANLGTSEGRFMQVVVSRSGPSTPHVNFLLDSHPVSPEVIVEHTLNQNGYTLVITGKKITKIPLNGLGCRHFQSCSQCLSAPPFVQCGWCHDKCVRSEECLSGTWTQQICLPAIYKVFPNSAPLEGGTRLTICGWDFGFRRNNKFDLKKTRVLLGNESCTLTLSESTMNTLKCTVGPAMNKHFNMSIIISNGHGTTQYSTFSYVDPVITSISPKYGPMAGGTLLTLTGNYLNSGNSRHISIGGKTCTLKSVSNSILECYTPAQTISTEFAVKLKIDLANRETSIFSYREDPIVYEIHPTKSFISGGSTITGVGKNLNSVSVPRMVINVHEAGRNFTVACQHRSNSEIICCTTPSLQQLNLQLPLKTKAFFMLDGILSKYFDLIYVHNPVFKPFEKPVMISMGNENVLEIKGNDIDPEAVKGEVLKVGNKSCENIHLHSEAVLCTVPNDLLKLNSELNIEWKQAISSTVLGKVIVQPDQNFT

[6] = target: T1, cMET on EGFR and cMET co-expressed …; test: flow cytometry on CAL-27 cells (co-express EGFR and cMET), PE anti-human Fc; signal of the whole bispecific, not resolved by arm
[7] = target: T3, EGFR on EGFR and cMET co-expressed …; test: as above
[8] = target: T1, cMET on EGFR and cMET co-expressed …; test: flow cytometry on SNU-5 cells (co-express EGFR and cMET), PE anti-human Fc; signal of the whole bispecific, not resolved by arm
[9] = target: T3, EGFR on EGFR and cMET co-expressed …; test: as above
human cMET-Fc = target: T5, human cMET-Fc (human, UniProt P08581 25-932); test: blocking ELISA: coated human cMET-Fc, antibody titrated, then human HGF-His (blocked ligand), anti-His-HRP
T5 construct: not shown: Fc part, not described

[10] = target: T1, cMET on EGFR and cMET co-expressed …; test: flow cytometry, MKN-45 cells; remark: listed apart in the source
[11] = target: T1, cMET on EGFR and cMET co-expressed …; test: flow cytometry, MKN-45 cells; remark: listed apart in the source
[12] = target: T1, cMET on EGFR and cMET co-expressed …; test: flow cytometry, EBC-1 cells (co-express EGFR and cMET; both arms contribute)
[13] = target: T3, EGFR on EGFR and cMET co-expressed …; test: as above

EC50 (read off the curve) [1]: ~1 nM | EC50 (read off the curve) [2]: ~0.7 nM | EC50 (read off the curve) [3]: ~0.4 nM
B1: Onartuzumab (antibody, V domains shown)
VH: EVQLVESGGGLVQPGGSLRLSCAASGYTFTSYWLHWVRQAPGKGLEWVGMIDPSNSDTRFNPNFKDRFTISADTSKNTAYLQMNSLRAEDTAVYYCATYRSYVTPLDYWGQGTLVTVSS
VL: DIQMTQSPSSLSASVGDRVTITCKSSQSLLYTSSQKNYLAWYQQKPGKAPKLLIYWASTRESGVPSRFSGSGSGTDFTLTISSLQPEDFATYYCQQYYAYPWTFGQGTKVEIK

EC50 (read off the curve) (Human EGFR): ~1 nM | EC50 (read off the curve) [4]: ~2 nM | EC50 (read off the curve) [5]: ~2 nM | EC50 (read off the curve) (Human cMET): ~0.07 nM | EC50 (read off the curve) [6]: ~10 nM | EC50 (read off the curve) [7]: ~10 nM | EC50 (read off the curve) [8]: ~3 nM | EC50 (read off the curve) [9]: ~3 nM
B2: AZD9592 (bispecific antibody, human IgG1, kappa, lambda)
anti-EGFR heavy chain: QVQLVQSGAEVKKPGSSVKVSCKASGGTFSDNDFSWVRQAPGQGLEWMGAIVAVFRTETYAQKFQDRVKITADISTRTTYMELSSLRSEDTAVYYCARRLMSAISGPGAPLLMWGQGTLVTVSSASTKGPSVCPLAPSSKSTSGGTAALGCLVKDYFPEPVTVSWNSGALTSGVHTFPAVLQSSGLYSLSSVVTVPSSSLGTQTYICNVNHKPSNTKVDKRVEPKSVDKTHTCPPCPAPEFEGGPSVFLFPPKPKDTLMISRTPEVTCVVVDVSHEDPEVKFNWYVDGVEVHNAKTKPREEQYNSTYRVVSVLTVLHQDWLNGKEYKCKVSNKALPASIEKTISKAKGQPREPQVYTLPPCREEMTKNQVSLWCLVKGFYPSDIAVEWESNGQPENNYKTTPPVLDSDGSFFLYSKLTVDKSRWQQGNVFSCSVMHEALHNHYTQKSLSLSPGK
anti-EGFR light chain: QSALTQPRSVSGSPGQSVTISCTGTSSDVGGYNYVSWYQQHPGKAPKLMIYDVSKRPSGVPDRFSGSKSGNTASLTISGLQAEDEADYYCSSYTSSDTLEIFGGGTKLTVLGQPKAAPSVTLFPPCSEELQANKATLVCLISDFYPGAVTVAWKADSSPVKAGVETTTPSKQSNNKYAASSYLSLTPEQWKSHRSYSCQVTHEGSTVEKTVAPTEVS
anti-cMET heavy chain: QVQLVQSGAEVKKPGASVKVSCKASGYTFTDYYIHWVRQATGQGLEWMGWMNPNSGNTGYAQKFQGRVTMTRDTSISTAYMELSSLRSEDTAVYYCARGQGYTHSWGQGTMVTVSSASTKGPSVFPLAPSSKSTSGGTAALGCLVKDYFPEPVTVSWNSGALTSGVHTFPAVLQSSGLYSLSSVVTVPSSSLGTQTYICNVNHKPSNTKVDKRVEPKSCDKTHTCPPCPAPEFEGGPSVFLFPPKPKDTLMISRTPEVTCVVVDVSHEDPEVKFNWYVDGVEVHNAKTKPREEQYNSTYRVVSVLTVLHQDWLNGKEYKCKVSNKALPASIEKTISKAKGQPREPQVCTLPPSREEMTKNQVSLSCAVKGFYPSDIAVEWESNGQPENNYKTTPPVLDSDGSFFLVSKLTVDKSRWQQGNVFSCSVMHEALHNHYTQKSLSLSPGK
anti-cMET light chain: DIQMTQSPSTLSASVGDRVTITCRASEGIYHWLAWYQQKPGKAPKLLIYKASSLASGVPSRFSGSGSGTEFTLTISSLQPDDFATYYCQQYSNYPPTFGGGTKLEIKRTVAAPSVFIFPPSDEQLKSGTASVVCLLNNFYPREAKVQWKVDNALQSGNSQESVTEQDSKDSTYSLSSTLTLSKADYEKHKVYACEVTHQGLSSPVTKSFNRGEC

IC50 (read off the curve) (human cMET-Fc): ~1 nM | EC50 (read off the curve) [10]: ~0.8 nM | EC50 (read off the curve) [11]: ~1 nM
B3: Telisotuzumab (antibody, V domains shown)
VH: QVQLVQSGAEVKKPGASVKVSCKASGYIFTAYTMHWVRQAPGQGLEWMGWIKPNNGLANYAQKFQGRVTMTRDTSISTAYMELSRLRSDDTAVYYCARSEITTEFDYWGQGTLVTVSS
VL: DIVMTQSPDSLAVSLGERATINCKSSESVDSYANSFLHWYQQKPGQPPKLLIYRASTRESGVPDRFSGSGSGTDFTLTISSLQAEDVAVYYCQQSKEDPLTFGGGTKVEIK

EC50 (read off the curve) [12]: ~2 nM | EC50 (read off the curve) [13]: ~2 nM
B4: Bsab 44 (bispecific antibody, human IgG1, kappa, L234A L235A)
anti EGFR knob chain (scFab): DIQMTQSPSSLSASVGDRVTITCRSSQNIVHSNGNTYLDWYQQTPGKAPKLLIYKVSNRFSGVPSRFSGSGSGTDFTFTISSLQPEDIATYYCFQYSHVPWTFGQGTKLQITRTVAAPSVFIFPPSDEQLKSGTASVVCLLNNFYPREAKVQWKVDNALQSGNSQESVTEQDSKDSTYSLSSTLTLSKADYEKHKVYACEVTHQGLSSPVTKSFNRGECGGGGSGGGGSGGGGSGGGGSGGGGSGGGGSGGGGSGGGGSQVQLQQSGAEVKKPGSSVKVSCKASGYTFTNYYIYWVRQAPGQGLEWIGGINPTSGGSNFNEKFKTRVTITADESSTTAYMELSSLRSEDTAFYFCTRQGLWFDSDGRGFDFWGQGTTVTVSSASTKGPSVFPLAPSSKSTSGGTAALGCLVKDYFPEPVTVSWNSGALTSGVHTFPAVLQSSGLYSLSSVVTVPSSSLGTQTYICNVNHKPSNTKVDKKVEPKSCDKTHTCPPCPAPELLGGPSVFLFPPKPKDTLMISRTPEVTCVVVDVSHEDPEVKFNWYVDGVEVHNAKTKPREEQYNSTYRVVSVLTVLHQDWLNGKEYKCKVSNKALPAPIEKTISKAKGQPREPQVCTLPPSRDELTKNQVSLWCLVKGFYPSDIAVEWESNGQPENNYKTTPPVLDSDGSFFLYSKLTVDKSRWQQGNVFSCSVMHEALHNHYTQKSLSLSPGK
anti cMET hole chain (scFab): DIQMTQSPSSLSASVGDRVTITCKSSQSLLYTSSQKNYLAWYQQKPGKAPKLLIYWASTRESGVPSRFSGSGSGTDFTLTISSLQPEDFATYYCQQYYAYPWTFGQGTKVEIKRTVAAPSVFIFPPSDEQLKSGTASVVCLLNNFYPREAKVQWKVDNALQSGNSQESVTEQDSKDSTYSLSSTLTLSKADYEKHKVYACEVTHQGLSSPVTKSFNRGECGGGGSGGGGSGGGGSGGGGSGGGGSGGGGSGGGGSGGGGSEVQLVESGGGLVQPGGSLRLSCAASGYTFTSYWLHWVRQAPGKCLEWVGMIDPSNSDTRFNPNFKDRFTISADTSKNTAYLQMNSLRAEDTAVYYCATYRSYVTPLDYWGQGTLVTVSSASTKGPSVFPLAPSSKSTSGGTAALGCLVKDYFPEPVTVSWNSGALTSGVHTFPAVLQSSGLYSLSSVVTVPSSSLGTQTYICNVNHKPSNTKVDKKVEPKSCDKTHTCPPCPAPEAAGGPSVFLFPPKPKDTLMISRTPEVTCVVVDVSHEDPEVKFNWYVDGVEVHNAKTKPREEQYNSTYRVVSVLTVLHQDWLNGKEYKCKVSNKALPAPIEKTISKAKGQPREPQVYTLPPCREEMTKNQVSLSCAVKGFYPSDIAVEWESNGQPENNYKTTPPVLDSDGSFFLVSKLTVDKSRWQQGNVFSCSVMHEALHNHYTQKSLSLSPGK
